The record followed here is publication PMC11131964, “Enantioselective transformation of phytoplankton-derived dihydroxypropanesulfonate by marine bacteria” (The ISME Journal, 2024).

The target in data set [1] is T1, RpHpsO (R-DHPS dehydrogenase HpsO, SPO0595) (Ruegeria pomeroyi, UniProt Q5LVV0).
T1 sequence (Q5LVV0 1-253): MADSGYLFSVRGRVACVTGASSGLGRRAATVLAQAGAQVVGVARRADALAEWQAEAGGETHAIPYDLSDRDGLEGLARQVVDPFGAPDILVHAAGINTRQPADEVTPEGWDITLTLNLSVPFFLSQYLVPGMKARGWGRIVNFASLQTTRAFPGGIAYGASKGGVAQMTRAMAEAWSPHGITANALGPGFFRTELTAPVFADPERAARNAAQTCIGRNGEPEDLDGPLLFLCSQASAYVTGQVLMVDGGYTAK
In words: SPR (Biacore T200, CM5 chip); also NADH formation assay, Km […]. The class given is binding. For orientation: SPR reads the build-up and loss of mass on a sensor chip optically.

Data set [2] addresses T2, RpHpsN (R-DHPS dehydrogenase HpsN, SPO0594) (Ruegeria pomeroyi, UniProt Q5LVV1).
T2 sequence (Q5LVV1 1-435): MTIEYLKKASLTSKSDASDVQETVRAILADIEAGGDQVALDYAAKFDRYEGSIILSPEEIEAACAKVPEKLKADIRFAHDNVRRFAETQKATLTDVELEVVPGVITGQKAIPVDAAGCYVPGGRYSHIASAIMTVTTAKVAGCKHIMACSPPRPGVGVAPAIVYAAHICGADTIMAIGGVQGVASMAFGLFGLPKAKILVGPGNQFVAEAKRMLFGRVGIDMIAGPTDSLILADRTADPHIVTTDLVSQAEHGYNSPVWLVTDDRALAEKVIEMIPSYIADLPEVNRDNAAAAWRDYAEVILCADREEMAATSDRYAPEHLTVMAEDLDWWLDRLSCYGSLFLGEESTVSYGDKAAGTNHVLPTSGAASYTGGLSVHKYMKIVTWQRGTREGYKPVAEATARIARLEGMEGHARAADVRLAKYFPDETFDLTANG
The description is as above. The class given is binding.

Data set [3] deals with T3, RpHpsP (S-DHPS dehydrogenase HpsP, SPO0596) (Ruegeria pomeroyi, UniProt Q5LVU9).
T3 sequence (Q5LVU9 1-332): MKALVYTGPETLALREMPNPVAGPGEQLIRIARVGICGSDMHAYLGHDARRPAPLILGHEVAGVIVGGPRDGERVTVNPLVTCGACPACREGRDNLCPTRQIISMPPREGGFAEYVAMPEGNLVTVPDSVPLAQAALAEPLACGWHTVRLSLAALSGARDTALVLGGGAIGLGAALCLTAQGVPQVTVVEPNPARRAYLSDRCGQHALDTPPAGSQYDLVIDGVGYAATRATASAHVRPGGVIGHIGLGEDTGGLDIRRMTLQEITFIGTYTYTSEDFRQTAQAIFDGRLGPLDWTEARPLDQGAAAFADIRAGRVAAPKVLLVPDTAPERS
In words: SPR (Biacore T200, CM5 chip); also NADH formation assay. Format: binding.

For data set [4], the target named is HpsP from Dinoroseobacter shibae DFL 12 (S-DHPS dehydrogenase) (Dinoroseobacter shibae DFL 12) (UniProt A8LJR6). In words: crystal structure; DsHpsP alone, crystallised at 18°C in 0.2 M sodium formate, 18% PEG 3350; 2.3 Å; oligomer seen in the asymmetric unit.
Data set [5] deals with the molecule itself. In words: crystal structure; RpHpsO alone, crystallised at 20°C in 0.1 M sodium citrate pH 5.4, 0.8 M sodium formate; 1.7 Å; oligomer seen in the asymmetric unit.
Data set [6] deals with the molecule itself. In words: crystal structure; RpHpsN alone, crystallised at 18°C in 0.1 M Tris pH 7.5, 1.1 M ammonium sulfate; 2.9 Å; oligomer seen in the asymmetric unit.
Substrate in data set [7]: N[C@H](CO)Cc1c[nH]cn1
In words: Michaelis-Menten kinetics of purified enzyme (Km). The class given is biochemical, Escherichia coli.

Substrate in data set [8]: OC[C@@H](O)[C@@H](O)[C@H](O)[C@@H](O)CO
In words: Michaelis-Menten kinetics of purified enzyme (Km). The class given is biochemical, Bacillus subtilis.

Regarding `O=S(=O)(O)C[C@H](O)CO` [R-DHPS], the Kd stood at 330 µM in data set [1] and 860 µM in data set [2]. `O=S(=O)(O)C[C@@H](O)CO` [S-DHPS] displayed a Kd in data set [3] of 740 µM. Molecule “HpsP from Dinoroseobacter shibae DFL 12 (S-DHPS dehydrogenase) (from UniProt A8LJR6 1-512) (enzyme)” yielded a stoichiometry N in data set [4] of 4.

B1: HpsO from Ruegeria pomeroyi DSS-3 (R-DHPS dehydrogenase) (enzyme)
chain: MADSGYLFSVRGRVACVTGASSGLGRRAATVLAQAGAQVVGVARRADALAEWQAEAGGETHAIPYDLSDRDGLEGLARQVVDPFGAPDILVHAAGINTRQPADEVTPEGWDITLTLNLSVPFFLSQYLVPGMKARGWGRIVNFASLQTTRAFPGGIAYGASKGGVAQMTRAMAEAWSPHGITANALGPGFFRTELTAPVFADPERAARNAAQTCIGRNGEPEDLDGPLLFLCSQASAYVTGQVLMVDGGYTAK
notes: HpsO, R-DHPS dehydrogenase of the short chain dehydrogenase/reductase family, Ruegeria pomeroyi DSS-3, locus tag SPO0595; Wild type; also called RpHpsO; SPO0595; source: E. coli BL21(DE3), pET28a, purified (HisTrap HP, Superdex 200 gel filtration)
B1: in data set [5], the “stoichiometry N” value came out at 4.

B2: HpsN from Ruegeria pomeroyi DSS-3 (R-DHPS dehydrogenase) (enzyme)
chain: MTIEYLKKASLTSKSDASDVQETVRAILADIEAGGDQVALDYAAKFDRYEGSIILSPEEIEAACAKVPEKLKADIRFAHDNVRRFAETQKATLTDVELEVVPGVITGQKAIPVDAAGCYVPGGRYSHIASAIMTVTTAKVAGCKHIMACSPPRPGVGVAPAIVYAAHICGADTIMAIGGVQGVASMAFGLFGLPKAKILVGPGNQFVAEAKRMLFGRVGIDMIAGPTDSLILADRTADPHIVTTDLVSQAEHGYNSPVWLVTDDRALAEKVIEMIPSYIADLPEVNRDNAAAAWRDYAEVILCADREEMAATSDRYAPEHLTVMAEDLDWWLDRLSCYGSLFLGEESTVSYGDKAAGTNHVLPTSGAASYTGGLSVHKYMKIVTWQRGTREGYKPVAEATARIARLE
notes: HpsN, R-DHPS dehydrogenase (sulfopropanediol 3-dehydrogenase) of the aldehyde dehydrogenase superfamily, Ruegeria pomeroyi DSS-3, locus tag SPO0594; Wild type; Val218-Gly225 and Thr348-Leu374 lack electron density in the crystal structure; also called RpHpsN; SPO0594; source: E. coli BL21(DE3), pET28a, purified (HisTrap HP, Superdex 200 gel filtration)
For the molecule B2, the “stoichiometry N” value in data set [6] amounted to 4.

B3: L-histidinol dehydrogenase (Escherichia coli K-12) (protein)
chain: SFNTIIDWNSCTAEQQRQLLMRPAISASESITRTVNDILDNVKARGDEALREYSAKFDKTTVTALKVSAEEIAAASERLSDELKQAMAVAVKNIETFHTAQKLPPVDVETQPGVRCQQVTRPVASVGLYIPGGSAPLFSTVLMLATPASIAGCKKVVLCSPPPIADEILYAAQLCGVQDVFNVGGAQAIAALAFGTESVPKVDKIFGPGNAFVTEAKRQVSQRLDGAAIDMPAGPSEVLVIADSGATPDFVASDLLSQAEHGPDSQVILLTPAADMARRVAEAVERQLAELPRAETARQALNASRLIVTKDLAQCVEISNQYGPEHLIIQTRNARELVDSITSAGSVFLGDWSPESAGDYASGTNHVLPTYGYTATCSSLGLADFQKRMTVQELSKEGFSALASTIETLAAAERLTAHKNAVTLRVNALKEQA
In the case of B3, in data set [7], the Km came out at 9.37 ± 3.63 mM, the kcat was found to be 0.042 ± 0.022 s⁻¹ and the kcat/Km is 4 ± 2 M⁻¹ s⁻¹.

B4: D-sorbitol dehydrogenase (Bsubs1_010100003458) (Bacillus subtilis subsp. subtilis str. 168) (protein)
chain: THTVPQNMKAAVMHNTREIKIETLPVPDINHDEVLIKVMAVGICGSDLHYYTNGRIGNYVVEKPFILGHECAGEIAAVGSSVDQFKVGDRVAVEPGVTCGRCEACKEGRYNLCPDVQFLATPPVDGAFVQYIKMRQDFVFLIPDSLSYEEAALIEPFSVGIHAAARTKLQPGSTIAIMGMGPVGLMAVAAAKAFGAGTIIVTDLEPLRLEAAKKMGATHIINIREQDALEEIKTITNDRGVDVAWETAGNPAALQSALASVRRGGKLAIVGLPSQNEIPLNVPFIADNEIDIYGIFRYANTYPKGIEFLASGIVDTKHLVTDQYSLEQTQDAMERALQFKNECLKVMVYPNR
Take B4: in data set [8], the Km amounted to 32.35 ± 3.59 mM, the kcat turned out to be 0.027 ± 0.001 s⁻¹ and the kcat/Km came out at 0.83 ± 0.045 M⁻¹ s⁻¹.

For orientation: Kd means the concentration at which binding is half-saturated. High values mean weaker binding, low ones tighter binding. By stoichiometry N is commonly meant the number of molecules, sites or subunits per partner or assembly. By Km is commonly meant the substrate concentration at which the rate is half of its maximum. In general, kcat refers to the maximal rate divided by the concentration of active sites. The kcat/Km is the second-order rate constant that governs catalysis at low substrate concentration.
